In PMC7933679:

Target: Deinococcus radiodurans MazF (MazF-dr) (Deinococcus radiodurans)
Assay: crystal structure; apo MazF-dr with N-terminal 6x His-tag, 5 mg/mL, sitting-drop vapor diffusion at 293 K; 0.2 M ammonium sulfate, 0.1 M Bis-Tris pH 5.5, 25% w/v PEG 3350; space group P4(3)2(1)2, dimer in the asymmetric unit; 1.3 Å

A stoichiometry N of 2 was found for “Deinococcus radiodurans MazF (MazF-dr) (enzyme)” in this work.
